The values below come from paper PMC11798907.

Holding throughout (experiment): EMSA
What all share (settings): LightShift Chemiluminescent EMSA kit protocol; 20 fmol biotin-labeled DNA, 4 pmol protein (where stated); buffer, salt, pH and temperature not stated
A general note: A gel shift assay detects complexes by their altered migration in electrophoresis.

The target in data set [1] is T1, OsWRKY121 (Oryza sativa) (UniProt Q75KW2).
T1 sequence: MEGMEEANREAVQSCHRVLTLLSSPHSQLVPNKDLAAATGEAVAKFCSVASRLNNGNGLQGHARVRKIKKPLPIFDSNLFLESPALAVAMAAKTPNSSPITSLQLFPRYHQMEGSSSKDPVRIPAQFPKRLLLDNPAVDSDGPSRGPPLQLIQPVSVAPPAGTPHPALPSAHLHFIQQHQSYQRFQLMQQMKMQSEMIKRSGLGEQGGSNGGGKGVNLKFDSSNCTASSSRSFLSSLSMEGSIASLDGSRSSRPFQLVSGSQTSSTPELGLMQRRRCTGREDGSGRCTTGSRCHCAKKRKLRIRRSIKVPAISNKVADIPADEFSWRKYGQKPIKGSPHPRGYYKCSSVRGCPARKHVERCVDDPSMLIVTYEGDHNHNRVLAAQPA

For data set [2], the target named is OsWRKY71 (Oryza sativa) (UniProt Q6QHD1).
Chain of OsWRKY71 (Oryza sativa) (Q6QHD1 whole entry): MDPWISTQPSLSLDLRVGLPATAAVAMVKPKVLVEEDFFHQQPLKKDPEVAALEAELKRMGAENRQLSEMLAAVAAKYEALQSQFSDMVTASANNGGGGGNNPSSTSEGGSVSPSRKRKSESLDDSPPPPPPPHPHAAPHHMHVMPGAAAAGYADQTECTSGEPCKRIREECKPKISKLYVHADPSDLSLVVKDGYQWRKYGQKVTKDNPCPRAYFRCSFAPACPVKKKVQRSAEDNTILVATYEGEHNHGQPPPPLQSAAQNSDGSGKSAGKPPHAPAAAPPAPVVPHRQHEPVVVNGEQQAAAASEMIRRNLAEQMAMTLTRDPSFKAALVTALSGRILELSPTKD
Data set [3] has as its system GmRAV1 (Glycine max), ORF:a1ee9a9b.

Chain of GmRAV1 (Glycine max), ORF:a1ee9a9b (chain, as listed by the source): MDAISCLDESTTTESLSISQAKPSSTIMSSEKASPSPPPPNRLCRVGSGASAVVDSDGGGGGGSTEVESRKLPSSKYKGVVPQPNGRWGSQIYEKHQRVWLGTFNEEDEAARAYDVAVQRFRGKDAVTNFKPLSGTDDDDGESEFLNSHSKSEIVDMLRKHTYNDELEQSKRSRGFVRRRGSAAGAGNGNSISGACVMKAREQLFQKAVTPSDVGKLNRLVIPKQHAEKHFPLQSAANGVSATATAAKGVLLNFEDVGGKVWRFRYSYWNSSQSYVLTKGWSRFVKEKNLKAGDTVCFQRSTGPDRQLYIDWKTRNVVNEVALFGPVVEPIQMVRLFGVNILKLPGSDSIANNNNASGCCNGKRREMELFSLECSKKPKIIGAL

For the sequence “AACAGCTTGTTGACTGGCTCCCTAGAGCTTTTTGTAAGTTGATCATCGAAGTAGCTAGTTCTCTTCACTTATCAGTCATCACTGTTCTATGTTCTATCTGCATTTTCCTTGATTTTGTACTTTTCCTGAACGAAAGGACAATCCTTAGCCATCATAATGCTATGATCGACTTATTCTGAAGTCATCCGGCCTCGATCCT (double strand) [OsNF-YC4 promoter 198-bp]”, in data set [1], the binding result is “binds”.

For “AGCATTATGATGGCTAAGGATTGTCCTTTCGTTCAGGAAAAGTACAAAATCAAGGAAAATGCAGA (double strand) [OsNF-YC4 promoter P4]”, the binding result in data set [2] was “no binding”.

On to “TAAAAGAAACAAGATTAAATTACGTATTTAATAATTTAAGATTAATGTTGTTTAATTTGATTTTTTAAATATTTATCTTTCTTTTGAATTTGATTCTTTAGTTCACTTAAG (double strand) [GmNF-YC4-1 promoter P4]”, for which, in data set [3], the binding result was “no binding”.

With “GATTAATAATATCCCTAATATTGTGAACAAACTTTGTTGGTAATGTAAAAAAAATTAAAAGAAACAAGATTAAATTACGTATTTAATAATTTAAGATTAA (double strand) [GmNF-YC4-1 promoter P3]”, the binding entry in data set [3] is listed as “binds”.

As for “TCCTGAACGAAAGGACAATCCTTAGCCATCATAATGCTATGATCGACTTATTCTGAAGTCATCCGGCCTCGATCCTCTTTTGT (double strand) [OsNF-YC4 promoter P3]”, the binding result in data set [2] and in data set [1] was “no binding” throughout.

Consider “GGCATTGACATGGATGGATGGAACACCCTCATAGTCACATGCCACAACAGAGTAACGCTAAACAAAATGTATTAACAAAAACTATAGGATCATGCTTTCTTAATTTAAAAACATAGG (double strand) [GmNF-YC4-1 promoter P1]”, for which the binding entry in data set [3] is “no binding”.

In the case of “TGGCTCCCTAGAGCTTTTTGTAAGTTGATCATCGAAGTAGCTAGTTCTCTTCACTTATCAGTCATCACTGTTCTATGTTCTATCTGCATTTTCCTTGATTTTGTACTTTTCCTGAACGAAAGGACAATCCTT (double strand) [OsNF-YC4 promoter P2]”, the binding result in data set [2] and in data set [1] was “binds” in each case.

“GGCATTGACATGGATGGATGGAACACCCTCATAGTCACATGCCACAACAGAGTAACGCTAAACAAAATGTATTAACAAAAACTATAGGATCATGCTTTCTTAATTTAAAAACATAGGTGGTCAGTTTTTGTTAACATTAATTTTTAGGATTATTTGTTGAAGACAAATATGGAAGGTTTATAATAATTTATGTGCATTACTCAATGTAATCC (double strand) [GmNF-YC4-1 promoter P5]”: the binding result in data set [3] is “binds”.

In the case of “GGATTACATTGAGTAATGCACATAAATTATTATAAACCTTCCATATTTGTCTTCAACAAATAATCCTAAAAATTAATGTTAACAAAAACTGACCACCTATGTTTTTAAATTAAGAAAGCATG (double strand) [GmNF-YC4-1 promoter P2]”, the binding result in data set [3] is on record as “binds”.

As to “ACCAGAGTTCTTTTTCCCCCTCTTCTACATAAACGAAAACAGCTTGTTGACTGGCTCCCTAGAGCTTTTTGTAAGTTGATCATCGAAGTAGCTAGTTCTCTTCACTTATCAGTCATCACTGTTCTATGTTCTATCTGCATTTTCCTTGATTTTGTACTTTTCCTGAACGAAAGGACAATCCTTAGCCATCATAATGCTATGATCGACTTATTCTGAAGTCATCCGGCCTCGATCCTCTTTTGT (double strand) [OsNF-YC4 promoter P5]”, the binding entry in data set [2] and in data set [1] was “binds” throughout.

Consider “CCCTAATATTGTGAACAAACTTTGTTGGTAATGTAAAAAAAATTAAAAGAAACAAGATTAAATTACGTATTTAATAATTTAAGATTAATGTTGTTTAATTTGATTTTTTAAATATTTATCTTTCTTTTGAATTTGATTCTTTAGTTCAC (double strand) [GmNF-YC4-1 promoter P6]”, for which, in data set [3], the binding entry is “binds”.
